biological target: Sushi domains (SD1/2) protein of the GABAB1a (GB1a) subunit, recombinant; assay: FP competition
Sequence (Q9Z0U4 29-158): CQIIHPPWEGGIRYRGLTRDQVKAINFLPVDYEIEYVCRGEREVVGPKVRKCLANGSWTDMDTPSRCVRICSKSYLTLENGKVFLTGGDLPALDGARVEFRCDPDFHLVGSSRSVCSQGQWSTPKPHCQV

| Binder | Ki [nM] |
| --- | --- |
| Ac-PTTETEFIAWGPTGDED-NH2 | 30 |
| Ac-ADAEEDDSDVWWGGADTDYAD-NH2 | 500 |
| Ac-PWAIVWG-NH2 | 579 |
| Ac-DSADAEEDDSDVWWGGADTDYAD-NH2 | 513 |
| Ac-PWAIVWGP-NH2 | 597 |
| Ac-TETEFIAWGPTGDEDAL-NH2 | 47 |
| Ac-VWWGGADTDYAD-NH2 | 60800 |
| Ac-PWAIVW-NH2 | 706 |
| Ac-AIVWGPTVSREDG-NH2 | 5550 |
| Ac-EEDDSDVWWGGADTDY-NH2 | 301 |
| Ac-SSQYPWAIVWGPTVSREDG-NH2 | 29900 |
| Ac-EDDSDVWWGAADTD-NH2 | 731 |
| Ac-EEDDSDVWWGGA-NH2 | 1020 |
| Ac-EADSDVWWGGADTD-NH2 | 1240 |
| Ac-QYPWAIVWGPTVSREDG-NH2 | 650 |
| Ac-TETEFIAWGPTGD-NH2 | 97 |
| Ac-SDVWWGGADTDYAD-NH2 | 2950 |
| Ac-IVWGPTVSREDG-NH2 | 15700 |

| Binder | Ki [nM] |
| --- | --- |
| Ac-PWAIVWGPTVSREDGGDP-NH2 | 597 |
| Ac-PWAIVWGPT-NH2 | 716 |
| Ac-EEDDSDVWWGGADTD-NH2 | 341 |
| Ac-EDASDVWWGGADTD-NH2 | 1830 |
| Ac-IAWGPTGDED-NH2 | 38000 |
| Ac-PWAIVWGPTVS-NH2 | 463 |
| Ac-PWAIVWGPTVSREDGGDPN-NH2 | 579 |
| Ac-TETEFIAWGP-NH2 | 574 |
| Ac-FIAWGPTGDED-NH2 | 118 |
| Ac-EEDDSDVWWGGADTDYADGG-NH2 | 341 |
| Ac-EEDDSDVWWGGADTDYA-NH2 | 299 |
| Ac-VWGPTVSREDG-NH2 | 1740 |
| Ac-EEDDSDVWWGGADTDYADGGE-NH2 | 351 |
| Ac-EEDDSDVWWGGADTDYADGGEDK-NH2 | 392 |
| Ac-EDDSDVAWGGADTD-NH2 | 8790 |
| Ac-EEDDSDVWWGGAD-NH2 | 534 |
| Ac-TETEFIAW-NH2 | 1010 |

Other lines, results leading:

| Ki [nM] | Binder |
| --- | --- |
| 561 | Ac-PWAIVWGPTV-NH2 |
| 12800 | Ac-EEDDSDVWWG-NH2 |
| 3080 | Ac-EDDSAVWWGGADTD-NH2 |
| 2470 | Ac-TETEFIAWG-NH2 |
| 561 | Ac-PWAIVWGPTVSREDGG-NH2 |
| 236 | Ac-TETEFIAWGPT-NH2 |
| 36 | Ac-TETEFIAWGPTGDEDA-NH2 |
| 433 | Ac-YPWAIVWGPTVSREDG-NH2 |
| 356 | Ac-EEDDSDVWWGGADTDYADGGED-NH2 |
| 517 | Ac-DDSDVWWGGADTDYAD-NH2 |
| 1750 | Ac-EEDDSDVWWGG-NH2 |
| 803 | Ac-ADDSDVWWGGADTD-NH2 |
| 706 | Ac-PWAIVWGPTVSREDGGDPNS-NH2 |
| 112 | Ac-EFIAWGPTGDED-NH2 |
| 248 | Ac-TETEFIAWGPTG-NH2 |
| 716 | Ac-PWAIVWGPTVSREDGGD-NH2 |
| 660 | Ac-EDDADVWWGGADTD-NH2 |

| Ki [nM] | Binder |
| --- | --- |
| 32 | Ac-TTETEFIAWGPTGDED-NH2 |
| 102 | Ac-TEFIAWGPTGDED-NH2 |
| 1790 | Ac-EEDDSDVWW-NH2 |
| 69 | Ac-TETEFIAWGPTGDE-NH2 |
| 343 | Ac-EEDDSDVWWGGADTDYADG-NH2 |
| 281 | Ac-EDDSDVWWGGADTDYAD-NH2 |
| 284 | Ac-SADAEEDDSDVWWGGADTDYAD-NH2 |
| 650 | Ac-PWAIVWGPTVSRE-NH2 |
| 585 | Ac-EEDDSDVWWGGADT-NH2 |
| 653 | Ac-EDDSDVWWGGAATD-NH2 |
| 433 | Ac-PWAIVWGPTVSR-NH2 |
| 485 | Ac-EDDSDVWWAGADTD-NH2 |
| 1500 | Ac-DSDVWWGGADTDYAD-NH2 |
| 247 | Ac-DAEEDDSDVWWGGADTDYAD-NH2 |
| 762 | Ac-SQYPWAIVWGPTVSREDG-NH2 |
| 6100 | Ac-DVWWGGADTDYAD-NH2 |

— patent publication US20260193293A1, “PEPTIDES CAPABLE OF INHIBITING PROTEIN-PROTEIN INTERACTIONS AT GABAB1A SUBUNIT AND USES THEREOF” (UNIVERSITY OF COPENHAGEN, priority 2022, published 2026)
